Test [1] addresses T. cruzi S-adenosylmethionine decarboxylase (AdoMetDC), His6-tagged (Trypanosoma cruzi).
The target of test [2] is T1, TcAdoMetDC (T. cruzi AdoMetDC homodimer) (Trypanosoma cruzi, UniProt O76240).
T1 sequence (O76240 1-85): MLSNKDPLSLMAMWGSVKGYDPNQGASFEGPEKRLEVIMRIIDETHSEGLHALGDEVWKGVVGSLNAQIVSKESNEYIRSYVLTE
T1 sequence (O76240 86-370): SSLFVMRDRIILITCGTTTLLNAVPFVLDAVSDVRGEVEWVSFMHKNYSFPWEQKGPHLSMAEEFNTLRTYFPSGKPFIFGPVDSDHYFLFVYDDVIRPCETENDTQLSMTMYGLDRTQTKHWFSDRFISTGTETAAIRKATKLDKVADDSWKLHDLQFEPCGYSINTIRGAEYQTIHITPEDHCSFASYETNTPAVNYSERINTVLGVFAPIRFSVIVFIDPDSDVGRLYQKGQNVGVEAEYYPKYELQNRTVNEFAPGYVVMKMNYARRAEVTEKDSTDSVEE
Nature of the test: activation of AdoMet decarboxylation, […]CO2 trapping. Type of test: biochemical. The settings on record: 5 mM putrescine; allosteric activator; pH 8.0, 37 °C.

The target of test [3] is T. brucei S-adenosylmethionine decarboxylase (AdoMetDC), His6-tagged (Trypanosoma brucei).
The target in test [4] is T. cruzi S-adenosylmethionine decarboxylase (AdoMetDC), His6-tagged (Trypanosoma cruzi). The source holds these as a separate data set.

This note sets out measurements from PMC2730992 (Molecular and biochemical parasitology, 2009).

In the case of “T. brucei prozyme, His6-tagged (natural protein)”, in test [1], the increase of T. cruzi AdoMetDC activity by T. brucei prozyme, no putrescine was determined as 70 fold.

On to `NCCCCN` [putrescine], for which the “activation of AdoMet decarboxylation, 14CO2 trapping” value in test [2] was “the T. cruzi AdoMetDC enzyme was stimulated by putrescine”.

“T. cruzi prozyme, His6-tagged (natural protein)” showed a stimulation of T. brucei AdoMetDC activity by T. cruzi prozyme, no putrescine in test [3] of 60 fold.

As to “T. cruzi prozyme, untagged (natural protein)”, in test [4], the kcat/Km of AdoMet decarboxylation, co-purified heterodimer, 5 mM putrescine is 5100 M⁻¹ s⁻¹ and the kcat/Km of AdoMet decarboxylation, co-purified heterodimer, no putrescine is 1030 M⁻¹ s⁻¹.
